Laboratory results: US20140162952A1 (ONCOTHERAPY SCIENCE, published 2014)
Positions count from the first letter of the chain named. Names may count otherwise. Where no end group is shown, it is not given here.

Columns and labels:
[1] = target: T1, 6×His-tagged recombinant PHB2/REA protein (human, UniProt Q99623 77-244); experiment: fluorescence correlation spectroscopy, 10 nM FITC-tagged ERAP1-scramble peptide with rising 6xHis-PHB2/REA
T1 construct: Expressed in Escherichia coli BL21 star (DE3); also called His-PHB2/REA; 6×His-PHB2/REA; not shown: hexahistidine tag, thioredoxin (TrxA) and TEV protease cut site at the amino terminal (pTAT6 vector)
T1 sequence (Q99623 77-244): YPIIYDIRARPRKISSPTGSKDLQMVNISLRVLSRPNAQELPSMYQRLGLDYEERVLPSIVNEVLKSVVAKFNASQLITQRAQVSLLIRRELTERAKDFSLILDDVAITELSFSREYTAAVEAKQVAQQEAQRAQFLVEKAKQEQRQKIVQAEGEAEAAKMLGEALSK

[2] = target: T2, inherent ERAP1 (Estrogen Receptor Activity-regulated Protein 1) (human, UniProt Q5TH69 1-2177); experiment: co-IP from cytoplasm and nuclear fractions of KPL-3C cells, 24 h, 10 nM E2 and/or 10 µM HA-tagged ERAP1-peptide; blot anti-HA
T2 construct: Endogenous protein immunoprecipitated from cell lysates; also called ERAP1 polypeptide; BIG3

[3] = target: T1, 6×His-tagged recombinant PHB2/REA …; experiment: Biacore 3000, 6×His-tagged recombinant PHB2/REA immobilized on a CM5 chip, peptide injected; Biacore; His-PHB2/REA on the chip, HA-tagged peptide injected
[4] = target: T1, 6×His-tagged recombinant PHB2/REA …; experiment: fluorescence correlation spectroscopy, 10 nM FITC-tagged peptide with His-PHB2/REA at various concentrations; fluorescence correlation spectroscopy; 10 nM FITC-tagged peptide in solution
[5] = target: T1, 6×His-tagged recombinant PHB2/REA …; experiment: fluorescence correlation spectroscopy, 10 nM FITC-tagged ERAP1-peptide with rising 6xHis-PHB2/REA; same constant as the 14.4 µM of the text, in mass units
[6] = target: T1, 6×His-tagged recombinant PHB2/REA …; experiment: Ni-resin pull-down of 10 µg His-PHB2 mixed with lysate of Flag-tagged ERAP1 expressing cells and HA-peptide; blot for Peptide
[7] = target: T3, HA-PHB2 (HA-tagged PHB2 construct) (human, UniProt Q99623 1-299, limits assumed); experiment: co-immunoprecipitation from COS-7 cells, IP anti-FLAG and IP anti-HA
T3 construct: Expressed by transfection in COS-7 or HEK293T cells; also called PHB2/REA construct; HA-tagged PHB2/REA (WT); not shown: HA tag
T3 sequence (Q99623 whole entry): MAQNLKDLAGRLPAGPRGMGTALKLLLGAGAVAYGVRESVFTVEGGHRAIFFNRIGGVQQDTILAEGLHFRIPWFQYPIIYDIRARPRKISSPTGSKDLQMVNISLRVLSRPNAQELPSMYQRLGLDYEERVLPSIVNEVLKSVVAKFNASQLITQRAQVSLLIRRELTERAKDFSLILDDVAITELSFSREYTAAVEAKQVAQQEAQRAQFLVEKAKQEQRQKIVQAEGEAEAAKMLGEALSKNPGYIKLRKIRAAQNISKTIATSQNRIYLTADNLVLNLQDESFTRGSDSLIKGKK

[8] = target: T3, HA-PHB2 (HA-tagged PHB2 construct); experiment: co-immunoprecipitation from COS-7 cells, IP anti-FLAG, blot anti-HA
[9] = target: T3, HA-PHB2 (HA-tagged PHB2 construct); experiment: COS-7 co-transfection with the PHB2/REA construct, IP and immunoblot
[10] = target: T3, HA-PHB2 (HA-tagged PHB2 construct); experiment: co-immunoprecipitation from COS-7 cells, IP anti-HA, blot anti-FLAG

B1: scrPeptide (peptide)
peptide: DRQLQLSTLQRML
modifications: also: FITC tag, position not given here
notes: also called FITC-tagged ERAP1-scramble peptide
- binding result [1]: no binding (tested: about 1.25 mg/mL)

B2: HA-tagged ERAP1-peptide (peptide)
peptide: RRRRRRRRRRRQMLSDLTLQLRQR
notes: ERAP1-peptide to which an HA tag was added; also called ERAP1-HA-peptide; HA tag-added peptide; not shown: HA tag
- binding result [2]: no binding (tested: 10 µM)
- Kd [3]: 18.9 µM

B3: FITC-tagged ERAP1-peptide (peptide)
peptide: RRRRRRRRRRRQMLSDLTLQLRQR
modifications: also: FITC tag, position not given here
- Kd [4]: 14.4 µM
- Kd [5]: 480 µg/mL

B4: Scramble (HA-Peptide) (peptide)
single chain: DRQLQLSTLQRML
notes: it is detected in the Peptide blot, so it carries the tag; also called HA-tagged ERAP1-scramble peptide
- binding result [6]: no binding (tested: 100 µM)

B5: ERAP1 mutant (alanine mutant of Q165, D169 and Q173) (other)
chain: MEEILRKLQKEASGSKYKAIKESCTWALETLGGLDTIVKIPPHVLREKCLLPLQLALESKNVKLAQHALAGMQKLLSEERFVSMETDSDEKQLLNQILNAVKVTPSLNEDLQVEVMKVLLCITYTPTFDLNGSAVLKIAEVCIETYISSCHQRSINTAVRATLSAMLSALTLALRQRQENTIIENPDVPQDFGNQGSTVESLCDDVVSVLTVLCEKLQAAINDSQQLQLLYLECILSVLSSSSSSMHLHRRFTDLIWKNLCPALIVILGNPIHDKTITSAHTSSTSTSLESDSASPGVSDHGRGSGCSCTAPALSGPVARTIYYIAAELVRLVGSVDSMKPVLQSLYHRVLLYPPPQHRVEAIKIMKEILGSPQRLCDLAGPSSTESESRKRSISKRKSHLDLLKLIMDGMTEACIKGGIEACYAAVSCVCTLL
notes: not shown: Flag tag
- binding result [7]: no binding
- ratio of the coprecipitated band (ERAP1 1-434 = 100) [8]: 1
- coprecipitation band, ratio when that with ERAP1 (1-434 aa) is designated as 100 [9]: 2%

B6: Q173A (other)
single chain: B5 chain with A165Q, A169D
notes: Construct named in the text, but absent from the list MOLECULES; its band ratios stand only on the sheet; also called alanine mutant of Q173 (Q173A)
- ratio of the coprecipitated band (ERAP1 1-434 = 100) [10]: 52
- ratio of the coprecipitated band (ERAP1 1-434 = 100) [8]: 79
